Data from publication PMC4760774.

Target: Dengue virus serotype 3 nonstructural protein 5 with a six-residue deletion in the priming loop (DENV3 NS5-Δ6) (dengue virus serotype 3 (DENV3))
Assay: crystal structure

## Dengue virus serotype 3 nonstructural protein 5 with a six-residue deletion in the priming loop (DENV3 NS5-Δ6) (enzyme)
  stoichiometry N: 2
